Tests used:
thrombin (alpha) [1] = target: T1, thrombin (alpha) (human, UniProt P00734;P00734 P00734:328-363,P00734:364-622); experiment: filter; ERL thrombin, 1 mM MgCl2, 37 C
[2] = target: T2, basic fibroblast growth factor (bFGF) (UniProt P09038 P09038:135-288); experiment: filter; PBS, 0.01% HSA, 1 mM DTT, 37 C; +/-0.4; settings: tags: Bachem California, 18 kDa, 154 aa; 125I-labeled for receptor assays
Procedure: (§1) This affinity screening allowed identification of those ligands with highest affinity for bFGF. Binding of a group of these ligands was analyzed over a range of bFGF concentrations (FIG. 5) and their dissociation constants.(Kd's) were determined as described (Jellinek et al. (1993) Proc. Natl. Acad. Sci. USA 90:11227–11231) (Table IX). RNA concentrations were determined from their absorbance reading at […] (and were typically <100 pM). Binding reactions were done at 37° C. in phosphate buffered saline containing 0.01% human serum albumin and 1 mM DTT.

[3] = target: T2, basic fibroblast growth factor (bFGF); experiment: filter; tested for affinity (*), Family 5; no value given; settings: tags: Bachem California, 154 aa, 18 kDa
[4] = target: T2, basic fibroblast growth factor (bFGF); experiment: filter; settings: tags: Bachem California, 18 kDa, 154 aa; 125I-labeled for receptor assays; 6-base G-C stem with blunt end
Procedure: In order to eliminate higher order structures, all DNA solutions were heated to 90° C. in PBS for 2–3 minutes and cooled on ice prior to incubation with protein. Relative binding affinity of individual ligands to bFGF cannot be predicted from sequence information. The majority of sequence isolates were therefore screened for their ability to bind to bFGF by measuring the fraction of radiolabeled DNA bound to nitrocellulose filters following incubation with 1 nM protein. […] Binding of these select isolates was then analyzed in more detail.
Those ligands are M225, M19, m234, M235, and D12 (SEQ ID NOS:359, 353, 387, 360, 332). The minimum size of the region necessary for binding was determined to be 35 bases for M225, M19 and D12 (See Truncations, Table XXI M225t3 (SEQ ID NO:364), M19t2 (SEQ ID NO:365), D12t2 (SEQ ID NO:341)). The ligand with the smallest essential sequence, m234, was isolated from Family 2, Experiment 3 and contains 24 nucleotides (m234t2 (SEQ ID NO:391)). The truncated ligands were tested for binding to bFGF. After truncation, ligands M225t3, M19t2, D12t2, M235t2, and m234t2 have kd values of 0.7 nM, 1 nM, 1 nM, 1 nM, and 6 nM respectively (Table XXII). All five of the truncated molecules lost some of their affinity for bFGF in comparison to the full length ligands. The binding affinity is regained when an additional G-C base pair is added to the blunt end stem of M225t3. This molecule is termed M225t3GC (SEQ ID NO:443). The binding of M225t3GC is 0.2 nM compared to 0.7 nM for M225t3 without the additional base pair (Table XXII).

[5] = target: human chorionic gonadotropin (human, UniProt P01215;P0DN86 P01215:25-116,P0DN86:21-165); experiment: filter; settings: 6-base G-C stem with blunt end
Chain of human chorionic gonadotropin (P01215 25-116, chain 1 of 2, other chains not shown): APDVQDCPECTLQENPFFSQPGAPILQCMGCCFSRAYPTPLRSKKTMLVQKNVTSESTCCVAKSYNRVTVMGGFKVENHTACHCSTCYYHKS

[6] = target: T3, vascular endothelial growth factor (VEGF) (UniProt P15692-4 P15692-4:27-191); experiment: filter; settings: chain copies: 2; 6-base G-C stem with blunt end
T3 sequence (P15692 other isoform, or with tags, fused parts or gaps): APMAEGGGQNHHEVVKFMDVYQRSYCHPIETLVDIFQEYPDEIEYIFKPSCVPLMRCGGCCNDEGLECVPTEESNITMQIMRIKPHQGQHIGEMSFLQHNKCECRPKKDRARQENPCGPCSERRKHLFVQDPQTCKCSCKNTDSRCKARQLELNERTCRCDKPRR

[7] = target: T2, basic fibroblast growth factor (bFGF); experiment: filter; PEG 3400 conjugate; settings: tags: Bachem California, 18 kDa, 154 aa; 125I-labeled for receptor assays
thrombin (alpha) [8] = target: T1, thrombin (alpha); experiment: filter; 100 mM NaCl, 50 mM Tris pH 7.7, 1 mM DTT, 1 mM MgCl2, 37 C
[9] = target: T2, basic fibroblast growth factor (bFGF); experiment: filter; PBS, 0.01% HSA, 1 mM DTT, 37 C; +/-1.1; settings: tags: Bachem California, 18 kDa, 154 aa; 125I-labeled for receptor assays
Procedure: as §1

antithrombin III = antithrombin III (UniProt P01008 P01008:33-464); experiment: filter; specificity, data not shown; settings: label: 32P
Chain of antithrombin III (P01008 33-464, one chain of several): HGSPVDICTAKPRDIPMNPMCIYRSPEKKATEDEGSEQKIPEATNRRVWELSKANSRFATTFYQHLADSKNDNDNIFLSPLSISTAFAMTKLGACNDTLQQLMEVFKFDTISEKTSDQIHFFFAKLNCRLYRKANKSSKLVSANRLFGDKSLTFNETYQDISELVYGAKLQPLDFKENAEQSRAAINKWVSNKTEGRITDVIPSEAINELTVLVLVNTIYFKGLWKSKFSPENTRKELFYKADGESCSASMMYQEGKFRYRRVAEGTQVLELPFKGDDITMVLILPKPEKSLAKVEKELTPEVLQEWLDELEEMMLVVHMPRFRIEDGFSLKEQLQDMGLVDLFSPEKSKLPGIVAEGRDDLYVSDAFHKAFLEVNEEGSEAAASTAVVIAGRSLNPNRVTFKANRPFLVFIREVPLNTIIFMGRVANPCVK

thrombin (alpha) [10] = target: T1, thrombin (alpha); experiment: filter; specificity, data not shown
acidic FGF = acidic FGF (UniProt P05230 P05230:16-155); experiment: filter; specificity, data not shown; settings: label: 32P
Chain of acidic FGF (P05230 16-155, one chain of several): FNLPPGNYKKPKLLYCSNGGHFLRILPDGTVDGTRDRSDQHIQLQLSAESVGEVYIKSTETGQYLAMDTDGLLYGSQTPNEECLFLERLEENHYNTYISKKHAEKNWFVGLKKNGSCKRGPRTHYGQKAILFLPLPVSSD

[11] = target: T3, vascular endothelial growth factor …; experiment: filter; specificity, data not shown; settings: chain copies: 2; label: 32P
[12] = target: T2, basic fibroblast growth factor (bFGF); experiment: competition; displacement from low-affinity receptor on BHK cells; high-affinity receptor >1 uM; settings: tags: Bachem California, 18 kDa, 154 aa; 125I-labeled for receptor assays; label: 32P
Procedure: Additionally, modified RNA ligands 21A (SEQ ID NO:104), 38B (SEQ ID NO:114) and Random RNAs were tested.
Receptor Binding Studies. bFGF was labeled with ^125I by the Iodo-Gen (Pierce) procedure as described by Moscatelli (1987) J. Cell. Physiol. 131:123. […] The amount of ^125I-bFGF bound to the low- and the high-affinity receptor sites was determined as described by Moscatelli (1987) supra.

thrombin (alpha) [13] = target: T1, thrombin (alpha); experiment: filter; curve only in figure; ERL thrombin
[14] = target: T2, basic fibroblast growth factor (bFGF); experiment: filter; PBS, 0.01% HSA, 1 mM DTT, 37 C; +/-0.2; settings: tags: Bachem California, 18 kDa, 154 aa; 125I-labeled for receptor assays
Procedure: as §1

[15] = target: T2, basic fibroblast growth factor (bFGF); experiment: filter; tested for affinity (*), Family 2; no value given; settings: tags: Bachem California, 154 aa, 18 kDa
thrombin (alpha) [16] = target: T1, thrombin (alpha); experiment: filter; curve only in figure
[17] = target: T2, basic fibroblast growth factor (bFGF); experiment: filter; tested for affinity (*), Family 3; no value given; settings: tags: Bachem California, 154 aa, 18 kDa
thrombin (alpha) [18] = target: T1, thrombin (alpha); experiment: filter; 30% binding at 300 nM tracer is not separately tabulated; curve in figure
[19] = target: T2, basic fibroblast growth factor (bFGF); experiment: filter; PBS, 0.01% HSA, 1 mM DTT, 37 C; +/-0.1; settings: tags: Bachem California, 18 kDa, 154 aa; 125I-labeled for receptor assays
Procedure: as §1

T2 sequence (P09038 135-288, one chain of several): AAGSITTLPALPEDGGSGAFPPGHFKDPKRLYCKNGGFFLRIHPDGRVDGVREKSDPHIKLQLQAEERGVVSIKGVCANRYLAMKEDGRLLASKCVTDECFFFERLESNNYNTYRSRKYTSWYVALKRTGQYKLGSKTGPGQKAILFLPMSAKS

In the case of GGTTGGTGTGGTTGG (ssDNA) [G15D], the Kd (thrombin (alpha) [1]) is reported as ~200 nM.

B1: 2'-NH2 34B (ssRNA)
RNA: GGGAGGACGAUGCGGAACGGGAGGUACGAGAGCGGGAGCGCAUAAAUAGGAAACUCCUUGCACGUCAGACGACUCGCCCGA
modifications: 2'-NH2 pyrimidines
B1 gave a Kd [2] of 2 nM.

B2: d1 (ssDNA)
DNA: ATCCGCCTGATTAGCGATACTACACCCAACCCCCTAAGATTTTAGAGCAACTCGGCGCAACACTTGAGCAAAATCACCTGCAGGGG
B2: binds [3].

GCGGGGCTACGTACCGGGGCTTTGTAAAACCCCGC (ssDNA) [M225t3] was tested, and the Kd [4] was 0.7 nM, the Kd [5] was > 200 nM and the Kd [6] was > 200 nM.

GCGGGGCTACGTACCGGGGCTTTGTAAAACCCCGC (ssDNA, PEG 3400 on 3' amino linker) [PEG-M225t3] was tested, and the Kd [7] was 1 nM.

B3: thrombin Class I RNA 16 (ssRNA)
RNA: AGAUGCCUGUCGAGCAUGCUGCAUCCGGAUCGAAGUUAGUAGGCCGAGGUGGUAGCUAAACAGCUUUGUCGACGGG
B3 was tested, and the Kd (thrombin (alpha) [8]) was ~30 nM.

B4: 2'-NH2 48B (ssRNA)
RNA: GGGAGGACGAUGCGGCAGGAUAGGAUGGGGUCGGAACCGUGUAUCAUAACGAGUCAUCUCCUGGUCAGACGACUCGCCCGA
modifications: 2'-NH2 pyrimidines
Work on B4 yielded a Kd [9] of 6.7 nM.

B5: 12A (ssRNA)
RNA: GGGAGCUCAGAAUAAACGCUCAAGGGGCAACGCUACAGACAAGUGCACCCAACUUCGACAUGAGGCCCGGAUCCGGC
With B5 the Kd (antithrombin III) was > 300 nM, the Kd (thrombin (alpha) [10]) was > 300 nM and the Kd (acidic FGF) was > 300 nM. The Kd [11] was > 300 nM and the IC50 [12] was > 100 nM.

CCGGAUCGAAGUUAGUAGGCCGAG (ssRNA) [24R (Class I clone 16 hairpin)]: binds (thrombin (alpha) [13]).

B6: d9 (ssDNA)
DNA: ATCCGCCTGATTAGCGATACTCGAAGAGTAGGAGGCGATCCGCTCCGTATCAGGTCACATAGGACTTGAGCAAAATCACCTGCAGGGG
B6: binds [3].

B7: 2'-NH2 59A (ssRNA)
RNA: GGGAGACAAGAAUAACGCUCAAUGUGUGGAAGGGUACCUGAGUGGGGAUGGGUUCGACAGGAGGCUCACAACAGGC
modifications: 2'-NH2 pyrimidines
B7 showed a Kd [14] of 1.2 nM.

B8: d46 (ssDNA)
DNA: ATCCGCCTGATTAGCGATACTAACACGGTCTGCTGCGACCCCTCGTACTAACGGTACCAGTACTTGAGCAAAATCACCTGCAGGGG
B8: binds [15].

B9: thrombin Class I RNA 6 (ssRNA)
RNA: AGAUGCCUGUCGAGCAUGCUGAGGAUCGAAGUUAGUAGGCUUUGUGUGCUCGUAGCUAAACAGCUUUGUCGACGGG
B9: binds (thrombin (alpha) [16]).

B10: thrombin Class II RNA 27 (ssRNA)
RNA: AGAUGCCUGUCGAGCAUGCUGGUGCGGCUUUGGGCGCCGUGCUUGACGUAGCUAAACAGCUUUGUCGACGGG
Binder B10 has a Kd (thrombin (alpha) [8]) of ~60 nM.

B11: m219 (ssDNA)
DNA: GGGAGGACGATGCGGGCAGCGACCGCGGTACAAGGCATAGGGTACAGACGACGACGGGGA
B11: binds [17].

GAGCAUGCUGGUGCGGCUUUGGGCGCCGUGCUU (ssRNA) [33R (Class II clone 27 hairpin)]: binds (thrombin (alpha) [18]).

B12: thrombin Class I RNA 18 (ssRNA)
RNA: AGAUGCCUGUCGAGCAUGCUGAUUGUUGCGGAUCGAAGUGAGUAGGCGCUAGUAGCUAAACAGCUUUGUCGACGGG
B12: binds (thrombin (alpha) [16]).

B13: 2'-NH2 21A (ssRNA)
RNA: GGGAGACAAGAAUAACGCUCAAGUAGACUAAUGUGUGGAAGACAGCGGGUGGUUCGACAGGAGGCUCACAACAGGC
modifications: 2'-NH2 pyrimidines
Binder B13 has a Kd [19] of 1.3 nM.

B14: d44 (ssDNA)
DNA: ATCCGCCTGATTAGCGATACTGACCACGACTGATGCGTCGCCTCCCGATAGGCAGTTACCCACTTGAGCAAAATCACCTGCAGGGG
B14: binds [15].

From patent US6177557, “High affinity ligands of basic fibroblast growth factor and thrombin” (NeXstar Pharmaceuticals, Inc.)
